Experimental data as given in JP2014141434A (dated 2014).

Assays:
[1] = target: T1, N末端FLAG−tag付加型ヒトROBO4細胞外領域ドメイン欠損体 hROBO4−341 (human, UniProt Q8WZ75 341-1007); test: flow cytometry, transfected HEK293 cells
T1 construct: On HEK293 cells; also called pCI−FLAG−hROBO4−341; pCI−hROBO4−341
T1 sequence: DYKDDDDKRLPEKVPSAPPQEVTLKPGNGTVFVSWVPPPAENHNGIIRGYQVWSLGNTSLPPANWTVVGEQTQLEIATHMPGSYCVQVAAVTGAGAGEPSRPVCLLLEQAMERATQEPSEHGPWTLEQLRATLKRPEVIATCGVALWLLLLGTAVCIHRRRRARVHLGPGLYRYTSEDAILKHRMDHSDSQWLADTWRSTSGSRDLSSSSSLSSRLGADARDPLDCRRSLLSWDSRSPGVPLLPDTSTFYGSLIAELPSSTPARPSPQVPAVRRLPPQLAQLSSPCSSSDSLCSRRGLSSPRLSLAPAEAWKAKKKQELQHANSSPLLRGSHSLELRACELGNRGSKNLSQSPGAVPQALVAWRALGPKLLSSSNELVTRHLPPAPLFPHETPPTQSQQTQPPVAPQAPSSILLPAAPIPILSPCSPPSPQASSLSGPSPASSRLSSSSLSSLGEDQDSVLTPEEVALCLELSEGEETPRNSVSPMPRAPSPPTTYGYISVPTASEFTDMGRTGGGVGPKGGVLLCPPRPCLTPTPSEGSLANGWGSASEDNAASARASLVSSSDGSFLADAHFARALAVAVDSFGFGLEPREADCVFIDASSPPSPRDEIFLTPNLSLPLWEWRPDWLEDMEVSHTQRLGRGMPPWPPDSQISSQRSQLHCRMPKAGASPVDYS

[2] = target: T2, N末端FLAG−tag付加型ヒトROBO4細胞外領域ドメイン欠損体 hROBO4−225 (human, UniProt Q8WZ75 225-1007); test: flow cytometry, transfected HEK293 cells
T2 construct: On HEK293 cells; also called pCI−FLAG−hROBO4−225; pCI−hROBO4−225
T2 sequence: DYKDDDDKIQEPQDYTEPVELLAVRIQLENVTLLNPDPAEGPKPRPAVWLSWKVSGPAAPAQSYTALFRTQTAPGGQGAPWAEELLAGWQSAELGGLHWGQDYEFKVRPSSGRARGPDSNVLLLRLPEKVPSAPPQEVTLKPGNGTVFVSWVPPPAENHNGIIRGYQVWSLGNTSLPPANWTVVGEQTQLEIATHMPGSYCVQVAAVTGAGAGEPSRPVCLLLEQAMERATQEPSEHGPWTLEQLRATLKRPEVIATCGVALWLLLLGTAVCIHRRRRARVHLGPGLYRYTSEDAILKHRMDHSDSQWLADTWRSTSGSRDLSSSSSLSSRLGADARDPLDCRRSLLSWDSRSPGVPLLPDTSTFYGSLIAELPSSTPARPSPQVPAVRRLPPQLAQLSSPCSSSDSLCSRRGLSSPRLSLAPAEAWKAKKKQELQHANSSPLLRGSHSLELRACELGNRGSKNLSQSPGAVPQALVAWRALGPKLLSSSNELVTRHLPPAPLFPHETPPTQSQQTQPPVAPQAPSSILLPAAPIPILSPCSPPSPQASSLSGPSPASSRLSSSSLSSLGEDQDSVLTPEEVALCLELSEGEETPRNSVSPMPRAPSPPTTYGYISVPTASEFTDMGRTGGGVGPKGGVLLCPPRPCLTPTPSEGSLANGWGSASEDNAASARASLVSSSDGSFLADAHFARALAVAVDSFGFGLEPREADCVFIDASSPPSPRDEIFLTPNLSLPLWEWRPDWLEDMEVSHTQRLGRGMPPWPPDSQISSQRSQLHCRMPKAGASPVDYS

[3] = target: T3, N末端FLAG−tag付加型カニクイザルROBO4 cynoROBO4−1 (cynomolgus monkey, UniProt Q8WZ75 28-1007 (human entry)); test: flow cytometry, transfected HEK293 cells, 10 μg/mL
T3 construct: also called pCI−FLAG−cynoROBO4−1
T3 chain: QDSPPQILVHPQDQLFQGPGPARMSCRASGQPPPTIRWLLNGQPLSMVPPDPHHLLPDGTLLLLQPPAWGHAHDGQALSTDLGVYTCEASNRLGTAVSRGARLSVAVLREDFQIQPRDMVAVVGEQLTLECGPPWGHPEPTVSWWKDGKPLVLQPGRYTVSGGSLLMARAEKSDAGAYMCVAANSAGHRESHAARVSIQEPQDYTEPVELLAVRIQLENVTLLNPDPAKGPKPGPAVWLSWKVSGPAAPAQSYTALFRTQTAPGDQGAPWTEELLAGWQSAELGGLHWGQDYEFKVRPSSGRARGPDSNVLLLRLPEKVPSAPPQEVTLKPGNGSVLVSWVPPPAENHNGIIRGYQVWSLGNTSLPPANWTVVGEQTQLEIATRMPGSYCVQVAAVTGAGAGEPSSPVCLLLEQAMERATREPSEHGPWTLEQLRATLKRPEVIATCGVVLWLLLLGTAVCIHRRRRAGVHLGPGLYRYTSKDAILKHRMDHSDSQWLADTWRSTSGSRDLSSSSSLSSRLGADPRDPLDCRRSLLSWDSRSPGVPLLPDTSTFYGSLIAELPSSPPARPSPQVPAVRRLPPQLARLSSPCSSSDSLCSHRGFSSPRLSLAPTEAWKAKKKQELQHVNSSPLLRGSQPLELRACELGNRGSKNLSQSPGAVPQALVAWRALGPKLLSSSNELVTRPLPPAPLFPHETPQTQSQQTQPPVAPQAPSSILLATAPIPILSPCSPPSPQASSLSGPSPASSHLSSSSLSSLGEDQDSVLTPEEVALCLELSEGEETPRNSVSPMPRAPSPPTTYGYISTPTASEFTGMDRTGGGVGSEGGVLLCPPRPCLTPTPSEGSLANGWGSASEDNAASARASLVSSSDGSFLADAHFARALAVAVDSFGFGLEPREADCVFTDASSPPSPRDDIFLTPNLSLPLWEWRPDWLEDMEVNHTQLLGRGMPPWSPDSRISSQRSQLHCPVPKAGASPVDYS

B1: 抗ROBO4マウスモノクローナル抗体 MAb1 (antibody, V domains shown)
VH: EVQLVESGGGLVKPGGSLKLSCAASGFTFSTYAMSWVRQTPEKRLEWVATISNGGTYTYYPDSVKGRFTISRDNAENTLYLQMSSLRSEDTAMYFCARLIYYDYLDYWGHGTTLTVSS
VL: DAVMTQTPLSLPVSLGDQASISCRSSQSLENSNGNTYLNWYFQKPGQSPQLLIYRVSNRFSGVLDRFSGSGSGTDFTLKISRVEAEDFGVYFCLQVTHVPWTFGGGTKLEIKR
notes: Mouse IgG1 (gamma 1) / kappa from a hybridoma; The constant regions are not in the listing; also called MAb1
**Q.** Which results are given for B1?
**A.** binding result [1]: no binding (tested: 10 μg/mL); binding result [2]: no binding (tested: 10 μg/mL); binding result [3]: binds
